Test results reported in publication doi:10.1101/2024.09.25.614892 (bioRxiv, 2024).
Read-outs that look alike come from different tables or passages of the source.

B1: FlgK (hook-filament junction protein) of Salmonella enterica (natural protein, UniProt P0A1J5 1-553, looked up)
chain: MSSLINHAMSGLNAAQAALNTVSNNINNYNVAGYTRQTTILAQANSTLGAGGWIGNGVYVSGVQREYDAFITNQLRGAQNQSSGLTTRYEQMSKIDNLLADKSSSLSGSLQSFFTSLQTLVSNAEDPAARQALIGKAEGLVNQFKTTDQYLRDQDKQVNIAIGSSVAQINNYAKQIANLNDQISRMTGVGAGASPNDLLDQRDQLVSELNKIVGVEVSVQDGGTYNLTMANGYTLVQGSTARQLAAVPSSADPTRTTVAYVDEAAGNIEIPEKLLNTGSLGGLLTFRSQDLDQTRNTLGQLALAFADAFNAQHTKGYDADGNKGKDFFSIGSPVVYSNSNNADKTVSLTAKVVDSTKVQATDYKIVFDGTDWQVTRTADNTTFTATKDADGKLEIDGLKVTVGTGAQKNDSFLLKPVSNAIVDMNVKVTNEAEIAMASESKLDPDVDTGDSDNRNGQALLDLQNSNVVGGNKTFNDAYATLVSDVGNKTSTLKTSSTTQANVVKQLYKQQQSVSGVNLDEEYGNLQRYQQYYLANAQVLQTANALFDALLNIR
B2: FlgL (hook-filament junction protein) of Salmonella enterica (natural protein, UniProt P16326 1-317, looked up)
chain: MRISTQMMYEQNMSGITNSQAEWMKLGEQMSTGKRVTNPSDDPIAASQAVVLSQAQAQNSQYALARTFATQKVSLEESVLSQVTTAIQTAQEKIVYAGNGTLSDDDRASLATDLQGIRDQLMNLANSTDGNGRYIFAGYKTEAAPFDQATGGYHGGEKSVTQQVDSARTMVIGHTGAQIFNSITSNAVPEPDGSDSEKNLFVMLDTAIAALKTPVEGNNVEKEKAAAAIDKTNRGLKNSLNNVLTVRAELGTQLSELSTLDSLGSDRALGQKLQMSNLVDVDWNSVISSYVMQQAALQASYKTFTDMQGMSLFQLNR
B3: FliC (flagellin) of Salmonella enterica (natural protein, UniProt P06179 1-495, looked up)
chain: MAQVINTNSLSLLTQNNLNKSQSALGTAIERLSSGLRINSAKDDAAGQAIANRFTANIKGLTQASRNANDGISIAQTTEGALNEINNNLQRVRELAVQSANSTNSQSDLDSIQAEITQRLNEIDRVSGQTQFNGVKVLAQDNTLTIQVGANDGETIDIDLKQINSQTLGLDTLNVQQKYKVSDTAATVTGYADTTIALDNSTFKASATGLGGTDQKIDGDLKFDDTTGKYYAKVTVTGGTGKDGYYEVSVDKTNGEVTLAGGATSPLTGGLPATATEDVKNVQVANADLTEAKAALTAAGVTGTASVVKMSYTDNNGKTIDGGLAVKVGDDYYSATQNKDGSISINTTKYTADDGTSKTALNKLGGADGKTEVVSIGGKTYAASKAEGHNFKAQPDLAEAAATTTENPLQKIDAALAQVDTLRSDLGAVQNRFNSAITNLGNTVNNLTSARSRIEDSDYATEVSNMSRAQILQQAGTSVLAQANQVPQNVLSLLR
B4: FliD (flagellar filament cap protein) of Salmonella enterica (natural protein, UniProt P16328 1-467, looked up)
chain: MASISSLGVGSNLPLDQLLTDLTKNEKGRLTPITKQQSANSAKLTAYGTLKSALEKFQTANTALNKADLFKSTVASSTTEDLKVSTTAGAAAGTYKINVTQLAAAQSLATKTTFATTKEQLGDTSVTSRTIKIEQPGRKEPLEIKLDKGDTSMEAIRDAINDADSGIAASIVKVKENEFQLVLTANSGTDNTMKITVEGDTKLNDLLAYDSTTNTGNMQELVKAENAKLNVNGIDIERQSNTVTDAPQGITLTLTKKVTDATVTVTKDDTKAKEAIKSWVDAYNSLVDTFSSLTKYTAVEPGEEASDKNGALLGDSVVRTIQTGIRAQFANSGSNSAFKTMAEIGITQDGTSGKLKIDDDKLTKVLKDNTAAARELLVGDGKETGITTKIATEVKSYLADDGIIDNAQDNVNATLKSLTKQYLSVSNSIDETVARYKAQFTQLDTMMSKLNNTSSYLTQQFTAMNKS
B5: FlgL (hook-filament junction protein) of Campylobacter jejuni (natural protein, UniProt A0A5T0WDM5 1-750, looked up)
chain: MRITNKLNFTNSVNNSMGGQSALYQISQQLASGLKIQNSYEDASTYIDNTRLEYEIKTLEQVKESTSRAQEMTQNSMKALQDMVKLLEDFKVKVTQAASDSNSQTSREAIAKELERIKESIVQLANTSVNGQYLFAGSQVANKPFDSNGNYYGDKNNINVVTGAGTESPYNIPGWDLFFKADGDYKKQISTNVSFTDNRWDLNKDPDKTKYLTGDSKWQQLIGQGYVKDNSLDADKDFEYDDSKLDFPPTTLYVQGTKPDGTSFKSAVLVKPEDTLEDVMENIGALYGNTPNNKVVEVSMNDSGQIQITDLKQGNNKLDFHAVAFTPQADTKDELKNIIEAANQEGISMNEVTNRVMQAATAAPSNGDITKLNNPVTVTINNQQFTIDLKQTDFIKSKMTDTDGNAANGADYDNVYFEKNGNTVYGNVSQVIKGSNAYATDSTKLSEVMAGDSLNGTTLNLKVNSKGGNSYDVTINLQTSTVSYPDPNNPGQTISFPIMHTNPATGNSGVVTGSNDITYGQINDIIGMFAADKIPTTTIQANNGQINNADYTQIQQLMKDSQATVDVSMDYKGRISVTDKLSSGTNIEISLSDSQSGQFPAPPFTTTSTVQNGPNFSFSANNSLTIDEPNVDIIKDLDSMIDAVLKGNMRADSESENPRNTGMQGALERLDHLADHVSKLNTTMGAYHNTIEGVNTRTSFLSVNVQSIKSNVIDVDYGEAMMNLMQVQLAYQASLKASTTISQLSLLNYM
B6: FlgE (flagellar hook protein) of Salmonella enterica (natural protein, UniProt P0A1J1 1-403, looked up)
chain: MSFSQAVSGLNAAATNLDVIGNNIANSATYGFKSGTASFADMFAGSKVGLGVKVAGITQDFTDGTTTNTGRGLDVAISQNGFFRLVDSNGSVFYSRNGQFKLDENRNLVNMQGMQLTGYPATGTPPTIQQGANPAPITIPNTLMAAKSTTTASMQINLNSTDPVPSKTPFSVSDADSYNKKGTVTVYDSQGNAHDMNVYFVKTKDNEWAVYTHDSSDPAATAPTTASTTLKFNENGILESGGTVNITTGTINGATAATFSLSFLNSMQQNTGANNIVATNQNGYKPGDLVSYQINNDGTVVGNYSNEQEQVLGQIVLANFANNEGLASQGDNVWAATQASGVALLGTAGSGNFGKLTNGALEASNVDLSKELVNMIVAQRNYQSNAQTIKTQDQILNTLVNLR
B7: FliD (flagellar filament cap protein) of Campylobacter jejuni (natural protein, UniProt Q9PHW6 1-642, looked up)
chain: MAFGSLSSLGFGSGVLTQDTIDKLKEAEQKARIDPYTKKIEENTTKQKDLTEIKTKLLSFQTAVSSLADATVFAKRKVVGSISDNPPASLTVNSGVALQSMNINVTQLAQKDVYQSKGLANDGGFVNAQLNGTADLTFFSNGKEYTVTVDKNTTYRDLADKINEASGGEIVAKIVNTGEKGTPYRLTLTSKETGEDSAISFYAGKKDSNGKYQKDINAEKIFDDLGWGLDVSASIDPDKDKKGYGIKDASLHIQTAQNAEFTLDGIKMFRSSNTVTDLGVGMTLTLNKTGEINFDVQQDFEGVTKAMQDLVDAYNDLVTNLNAATDYNSETGTKGTLQGISEVNSIRSSILADLFDSQVVDGTTEDANGNKVNTKVMLSMQDFGLSLNDAGTLSFDSSKFEQKVKEDPDSTESFFSNITKYEDINHTGEVIKTGSLSKYLNSNGGNTNGLEFKPGDFTIVFNNQTYDLSKNSDGTNFKLTGKTEEELLQNLANHINSKGIEGLKVKVESYNQNNVTGFRLNFSGDGSSDFSIKGDANILKELGLSDVNITSKPIEGKGIFSKLKATLQEMTGKDGSITKYDESLTNDIKSLNTSKDSTQAMIDTRYDTMANQWLQYESILNKLNQQLNTVTNMINAANNSNN
B8: FlgK (hook-filament junction protein) of Campylobacter jejuni (natural protein, UniProt Q0P8E9 1-608, looked up)
chain: MGIFGTLYTGVTGLKASEVQIATTGNNISNANATFYTRQRVVQTTNGYITTGGVQVGTGTAVESIVRLHDEYSYYKLKGASTQLEYTKYMASTLQEIAQRFPDLQNTGILQDLENYNKAWNDFASNPNENATKIALVKASQTLTESVNNTFATLDKIQKKVNDDIKNTVDEINRIGEEIATINKQIYGQEALPTEHANELRDRRDELELTLSKLVSAVASKNEINQDNRLDTTITDPGHQYNLSIEGFSIVDGINFHPLKLDYDDKNKSYSIYYETPDEKVRDLTAKISGGQLGAQLDLRGRNYSKSEGKYEDGIIQGYMDSLDTFAKTMINETNNLYASSAKSSVTSDYLSGLKGDIPLVNYDRTIQPGSFDIVIYDDKGDKKLTKTITIDVNTTMNDIMRQINANTDDNDNKNSNDDVDDHINASFSYDAKTGDGLFQINAKSGFKVAIEDKGTNFAGAFSIGGFFSGTDASDMKVKDSILNDPSTVRASSNGVDSGNDMANKIIQLQYKKVNFYNEDGTIDNLTMEEYYRKLTGKIASDGENNNVVNSSNETLYNSVYSEYQSKSGVNTNEELAALIQYQSSYGAAAKIVSTVDQMLDTLLGLKS

Columns and labels:
Test in all cases: cryo-EM structure
cryo-EM structure [1] = target: the molecule itself
[2] = target: B3
cryo-EM structure [3] = target: the molecule itself; remark: listed apart in the source
[4] = target: B3; remark: listed apart in the source
cryo-EM structure [5] = target: the molecule itself; remark: listed apart in the source

With B1 the “stoichiometry N” value (cryo-EM structure [1]) was 11 subunits.

In the case of B2, the “stoichiometry N” value (cryo-EM structure [1]) is reported as 11 subunits and the binding result [2] is reported as “binds”.

B3: binds (cryo-EM structure [1]).

With B4 the “stoichiometry N” value (cryo-EM structure [3]) was 5 subunits and the binding result [4] was “binds”.

For B5, the “stoichiometry N” value (cryo-EM structure [5]) was 11 subunits.

B6: binds (cryo-EM structure [1]).

With B7 the “stoichiometry N” value (cryo-EM structure [5]) was 5 subunits.

With B8 the “stoichiometry N” value (cryo-EM structure [5]) was 11 subunits.
